Assay [1] deals with human CD137 (human, UniProt Q07011 24-186). Nature of the assay: SPR Biacore T200, IgG captured on protein A, 25 C.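 Also: antigens diluted in ACES running buffer at pH 7.4 were flowed over antibodies held on a CM3 chip bearing amine-coupled protein A, with buffer alone serving as blank.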 For orientation: Surface plasmon resonance follows binding to a sensor surface in real time, without labels.
The target of assay [2] is T1, cyno CD137 (cynomolgus monkey, UniProt Q07011 24-186 (human entry), limits assumed).
T1 construct: also called cynomolgus monkey CD137
T1 chain: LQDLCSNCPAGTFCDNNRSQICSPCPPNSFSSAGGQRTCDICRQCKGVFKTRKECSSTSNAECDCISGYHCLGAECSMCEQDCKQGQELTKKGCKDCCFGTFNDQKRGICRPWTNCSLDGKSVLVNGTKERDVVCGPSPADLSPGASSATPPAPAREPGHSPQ
Nature of the assay: SPR Biacore T200, IgG captured on protein A, 25 C.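 Also: antigens diluted in ACES running buffer at pH 7.4 were flowed over antibodies held on a CM3 chip bearing amine-coupled protein A, with buffer alone serving as blank.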

Assay [3] addresses human CD3 ed (human, UniProt P07766 23-126; P04234 22-105, limits assumed). In words: SPR Biacore T200, IgG captured on protein A, 25 C.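 Also: antigens diluted in ACES running buffer at pH 7.4 were flowed over antibodies held on a CM3 chip bearing amine-coupled protein A, with buffer alone serving as blank.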
Assay [4] has as its target T2, biotin-labeled human CD137 fused to human IgG1 Fc fragment (human, biotin-labeled).
T2 construct: also called human CD137-Fc; biotin-human CD137-Fc; not shown: human IgG1 Fc fragment
Nature of the assay: competitive ELISA on biotin-human CD137-Fc; free CD3e vs free Fc. (In general: ELISA stands for enzyme-linked immunosorbent assay.)

Assay [5] deals with T2, biotin-labeled human CD137 fused to …. In words: competitive ELISA on biotin-human CD137-Fc; free Fc 62.5 pmol (control).
Assay [6] has the same target. In words: competitive ELISA on biotin-human CD137-Fc; competitor free CD3e 62.5 pmol.

B1: dBBDu167/L094 (antibody, V domains shown)
VH: QVQLVESGGGLVQPGRSLRLSCAASGFTFSNAWMHWVRQAPGKGLEWVAQIKDKGNLYAAYYAPSVKGRFTISRDDSKNSIYLQMNSLKTEDTAVYYCHYVHYASAGGGLPGFGVDAWGQGTTVTVSS
VL: DIVMTQSPLSLPVTPGEPASISCYASEELLHINRHIYLHWYQQKPGQAPRLLIYKVYNRFNGVPDRFSGSGSGTDFTLKISRVEAEDVGVYYCAQGSSVPFTFGQGTKLEIK
notes: IgG format; constant regions not specified; also called dBBDu_167 dBBDu.L094
As to B1, the values for the dissociation constant (Kd) in assay [1], in assay [2] and in assay [3] were 8.43 µM, 6.92 µM and 0.349 µM, respectively. In addition, the koff (commonly the rate constant with which the complex falls apart) in assay [1] was 0.0102 s⁻¹; in assay [2], 0.0748 s⁻¹; in assay [3], 0.021 s⁻¹. Besides, the kon (as a rule, a measure of how fast the partners come together) in assay [1] turned out to be 1210 M⁻¹ s⁻¹; in assay [2], 10800 M⁻¹ s⁻¹; in assay [3] it was 60200 M⁻¹ s⁻¹. The molecule further gave a Signal decrease in assay [4] of 96.9%. Also, the ELISA signal in assay [5] was 141000; in assay [6], 4370.

B2: dBBDu186/L098 (antibody, V domains shown)
VH: QVQLVESGGGLVQPGRSLRLSCAASGFTFSNAWMHWVRQAPGKGLEWVAQIKDRSNQYATYYAPSVKGRFTISRDDSKNSIYLQMNSLKTEDTAVYYCHYVHYAQASTVLPAFGVDAWGQGTTVTVSS
VL: DIVMTQSPLSLPVTPGEPASISCAASEELVHINRYIFLHWYQQKPGQAPRLLIYKVSNRFIGVPDRFSGSGSGTDFTLKISRVEAEDVGVYYCAQGSQVPFTFGQGTKLEIK
notes: IgG format; constant regions not specified
Regarding B2, the Kd – broadly, the concentration at which binding is half-saturated – was determined as 2.31 µM in assay [1], 134 µM in assay [2] and 1.88 µM in assay [3]. In addition, the koff in assay [1] came out at 0.000534 s⁻¹; in assay [2] it was 0.00119 s⁻¹; in assay [3], 0.0209 s⁻¹. In addition, the kon in assay [1] stood at 231 M⁻¹ s⁻¹; in assay [3], 11100 M⁻¹ s⁻¹. Further, the Signal decrease in assay [4] was 86.2%. Besides, the ELISA signal was determined as 115000 in assay [5] and 15900 in assay [6].

B3: dBBDu186/L106 (antibody, V domains shown)
VH: QVQLVESGGGLVQPGRSLRLSCAASGFTFSNAWMHWVRQAPGKGLEWVAQIKDRSNQYATYYAPSVKGRFTISRDDSKNSIYLQMNSLKTEDTAVYYCHYVHYAQASTVLPAFGVDAWGQGTTVTVSS
VL: DIVMTQSPLSLPVTPGEPASISCSTSEELLHINRFIFLHWYQQKPGQAPRLLIYKVANRFMGVPDRFSGSGSGTDFTLKISRVEAEDVGVYYCAQGSQVPFTFGQGTKLEIK
notes: as for B2
Regarding B3, the Kd came to 3.44 µM in assay [1], 61.3 µM in assay [2] and 3.09 µM in assay [3]. Besides, the koff turned out to be 0.000447 s⁻¹ in assay [1], 0.00126 s⁻¹ in assay [2] and 0.0318 s⁻¹ in assay [3]. For the same molecule, the kon turned out to be 130 M⁻¹ s⁻¹ in assay [1] and 10300 M⁻¹ s⁻¹ in assay [3]. In assay [4], the Signal decrease amounted to 68.7%. Also, the ELISA signal was 9860 in assay [5] and 3090 in assay [6].

B4: dBBDu193/L132 (antibody, V domains shown)
VH: QVQLVESGGGLVQPGRSLRLSCAASGFTFSNAWMHWVRQAPGKGLEWVAQIKDRSNQYATYYAPSVKGRFTISRDDSKNSIYLQMNSLKTEDTAVYYCHYVHYSAASTLLPSFGVDAWGQGTTVTVSS
VL: DIVMTQSPLSLPVTPGEPASISCQTSEELVHINRFIFLHWYQQKPGQAPRLLIYKVSNRFSGVPDRFSGSGSGTDFTLKISRVEAEDVGVYYCAQGTSVPFTFGQGTKLEIK
notes: IgG format; constant regions not specified; also called dBBDu_193 dBBDu.L132
Consider B4, for which the Kd in assay [1] was 4.48 µM; in assay [2] it was 757 µM; in assay [3], 2.03 µM. Further, the dissociation rate constant (koff) in assay [1] turned out to be 0.00211 s⁻¹; in assay [2] it was 0.0061 s⁻¹; in assay [3], 0.0201 s⁻¹. Also, the kon in assay [1] worked out at 471 M⁻¹ s⁻¹; in assay [3], 9890 M⁻¹ s⁻¹. The same molecule gave a Signal decrease in assay [4] of 91%. Moreover, the ELISA signal in assay [5] is 116000; in assay [6], 10400.

B5: dBBDu193/L127 (antibody, V domains shown)
VH: QVQLVESGGGLVQPGRSLRLSCAASGFTFSNAWMHWVRQAPGKGLEWVAQIKDRSNQYATYYAPSVKGRFTISRDDSKNSIYLQMNSLKTEDTAVYYCHYVHYSAASTLLPSFGVDAWGQGTTVTVSS
VL: DIVMTQSPLSLPVTPGEPASISCRASEELLHINRHIFLHWYQQKPGQAPRLLIYKVYNRFTGVPDRFSGSGSGTDFTLKISRVEAEDVGVYYCAQGTSVPFTFGQGTKLEIK
notes: IgG format; constant regions not specified; also called dBBDu_193 dBBDu.L127
With B5, the dissociation constant (Kd) in assay [1] stood at 3.3 µM; in assay [2], 28.1 µM; in assay [3], 1.51 µM. Further, the koff is 0.00145 s⁻¹ in assay [1], 0.00316 s⁻¹ in assay [2] and 0.0191 s⁻¹ in assay [3]. The kon in assay [1] was 440 M⁻¹ s⁻¹; in assay [2], 112 M⁻¹ s⁻¹; in assay [3], 12600 M⁻¹ s⁻¹. The molecule further displayed a Signal decrease in assay [4] of 59.4%. Moreover, the ELISA signal in assay [5] is 6080; in assay [6], 2470.

B6: dBBDu189/L119 (antibody, V domains shown)
VH: QVQLVESGGGLVQPGRSLRLSCAASGFTFSNAWMHWVRQAPGKGLEWIAQIKDRSNQYATYYAPSVKGRFTISRDDSKNSIYLQMNSLKTEDTAVYYCHYVHYAQASSLLPSFGVDAWGQGTTVTVSS
VL: DIVMTQSPLSLPVTPGEPASISCTASQELVHINRFIFLHWYQQKPGQAPRLLIYKVSNRFIGVPDRFSGSGSGTDFTLKISRVEAEDVGVYYCAQGSQVPFTFGQGTKLEIK
notes: as for B2
B6: the Kd in assay [1] was 2.71 µM; in assay [2] it was 35.7 µM; in assay [3] it was 2.06 µM. In addition, the koff turned out to be 0.000402 s⁻¹ in assay [1], 0.00122 s⁻¹ in assay [2] and 0.0258 s⁻¹ in assay [3]. For the same molecule, the kon was 148 M⁻¹ s⁻¹ in assay [1] and 12500 M⁻¹ s⁻¹ in assay [3]. The molecule also showed a Signal decrease in assay [4] of 76.9%. Further, the ELISA signal came to 88100 in assay [5] and 20400 in assay [6].

B7: dBBDu189/L126 (antibody, V domains shown)
VH: QVQLVESGGGLVQPGRSLRLSCAASGFTFSNAWMHWVRQAPGKGLEWIAQIKDRSNQYATYYAPSVKGRFTISRDDSKNSIYLQMNSLKTEDTAVYYCHYVHYAQASSLLPSFGVDAWGQGTTVTVSS
VL: DIVMTQSPLSLPVTPGEPASISCRTSEELLHINRYIFLHWYQQKPGQAPRLLIYKVQNRFSGVPDRFSGSGSGTDFTLKISRVEAEDVGVYYCAQGSAVPFTFGQGTKLEIK
notes: as for B2
For B7, the equilibrium dissociation constant (Kd) in assay [1] amounted to 0.513 µM; in assay [2], 3.06 µM; in assay [3] it was 2.57 µM. For the same molecule, the koff in assay [1] stood at 0.000688 s⁻¹; in assay [2], 0.00247 s⁻¹; in assay [3], 0.0281 s⁻¹. Further, the kon in assay [1] came out at 1340 M⁻¹ s⁻¹; in assay [2], 807 M⁻¹ s⁻¹; in assay [3], 10900 M⁻¹ s⁻¹. Further, in assay [4], the Signal decrease was determined as 87%. For the same molecule, the ELISA signal in assay [5] came out at 75100; in assay [6] it was 9750.

B8: dBBDu186/L100 (antibody, V domains shown)
VH: QVQLVESGGGLVQPGRSLRLSCAASGFTFSNAWMHWVRQAPGKGLEWVAQIKDRSNQYATYYAPSVKGRFTISRDDSKNSIYLQMNSLKTEDTAVYYCHYVHYAQASTVLPAFGVDAWGQGTTVTVSS
VL: DIVMTQSPLSLPVTPGEPASISCSASEELVHINRYIFLHWYQQKPGQAPRLLIYKVYNRFMGVPDRFSGSGSGTDFTLKISRVEAEDVGVYYCGQGSSVPFTFGQGTKLEIK
notes: as for B2
As for B8, the values for the equilibrium dissociation constant (Kd) in assay [1], in assay [2] and in assay [3] were 1.91 µM, 70.4 µM and 3.36 µM, respectively. Further, the results for the koff in assay [1], in assay [2] and in assay [3] were 0.000746 s⁻¹, 0.00208 s⁻¹ and 0.0546 s⁻¹, respectively. The values for the kon in assay [1] and in assay [3] were 391 M⁻¹ s⁻¹ and 16200 M⁻¹ s⁻¹, respectively. This molecule also showed a Signal decrease in assay [4] of 13%. For the same molecule, the ELISA signal in assay [5] was found to be 102000; in assay [6], 88900.

B9: dBBDu186/L108 (antibody, V domains shown)
VH: QVQLVESGGGLVQPGRSLRLSCAASGFTFSNAWMHWVRQAPGKGLEWVAQIKDRSNQYATYYAPSVKGRFTISRDDSKNSIYLQMNSLKTEDTAVYYCHYVHYAQASTVLPAFGVDAWGQGTTVTVSS
VL: DIVMTQSPLSLPVTPGEPASISCRTSEELLHINRFTFLHWYQQKPGQAPRLLIYKVSNRFMGVPDRFSGSGSGTDFTLKISRVEAEDVGVYYCAQGSAVPFTFGQGTKLEIK
notes: as for B2
Regarding B9, the results for the Kd in assay [1], in assay [2] and in assay [3] were 2.41 µM, 16.1 µM and 3.01 µM, respectively. Besides, the koff in assay [1] amounted to 0.00081 s⁻¹; in assay [2] it was 0.00361 s⁻¹; in assay [3], 0.0408 s⁻¹. The on-rate constant (kon) amounted to 335 M⁻¹ s⁻¹ in assay [1], 225 M⁻¹ s⁻¹ in assay [2] and 13600 M⁻¹ s⁻¹ in assay [3]. In assay [4], the Signal decrease turned out to be 39.2%. For the same molecule, the values for the ELISA signal in assay [5] and in assay [6] were 83600 and 50800, respectively.
